Test results published in patent US20020127657A1 (Dana-Farber, published 2002).

T1: CD2 binding protein 2 (CD2BP2) (human, UniProt O95400 1-341, limits assumed)
T1 construct: CD2BP2 as used in the yeast two-hybrid tests against CD2 derivatives (vector pJG4-5)
T1 sequence: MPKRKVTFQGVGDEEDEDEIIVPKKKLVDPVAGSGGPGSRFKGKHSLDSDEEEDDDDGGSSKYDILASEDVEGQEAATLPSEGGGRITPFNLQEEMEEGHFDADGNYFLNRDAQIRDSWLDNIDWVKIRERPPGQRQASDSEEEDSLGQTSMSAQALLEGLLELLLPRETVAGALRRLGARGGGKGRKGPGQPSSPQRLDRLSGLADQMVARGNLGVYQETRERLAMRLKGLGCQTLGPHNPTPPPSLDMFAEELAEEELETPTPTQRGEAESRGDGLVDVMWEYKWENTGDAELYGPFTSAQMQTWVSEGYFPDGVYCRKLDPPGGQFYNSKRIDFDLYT

T2: CD2BP2129-287 (human, UniProt O95400 129-287)
T2 construct: Yeast two-hybrid prey; vector fusion part not described
T2 sequence: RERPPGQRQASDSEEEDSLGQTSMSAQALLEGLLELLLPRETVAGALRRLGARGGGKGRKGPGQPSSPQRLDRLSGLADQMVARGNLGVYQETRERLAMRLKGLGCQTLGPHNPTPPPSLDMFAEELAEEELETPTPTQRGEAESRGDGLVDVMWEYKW

T3: CD2BP2129-254 (human, UniProt O95400 129-254)
T3 construct: Yeast two-hybrid prey; vector fusion part not described
T3 sequence: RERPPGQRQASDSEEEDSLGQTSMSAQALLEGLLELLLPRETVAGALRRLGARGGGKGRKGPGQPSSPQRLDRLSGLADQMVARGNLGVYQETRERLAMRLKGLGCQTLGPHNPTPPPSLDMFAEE

T4: CD2BP2225-341 (yeast two-hybrid clone) (human, UniProt O95400 225-341)
T4 construct: Yeast two-hybrid prey in pJG4-5; vector fusion part not described
T4 sequence: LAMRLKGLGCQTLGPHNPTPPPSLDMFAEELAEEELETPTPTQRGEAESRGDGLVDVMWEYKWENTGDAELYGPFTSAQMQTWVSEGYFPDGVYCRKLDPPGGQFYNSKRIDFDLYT

B1: CD2 cytoplasmic region (CD2221-327) (receptor, human, UniProt P06729 245-351, looked up)
chain: NDEELETRAHRVATEERGRKPHQIPASTPQNPATSQHPPPPPGHRSQAPSHRPPPPGHRVQHQPQKRPPAPSGTQVHQQKGPPLPRPRVQPKPPHGAAENSLSPSSN
notes: range 221-327; Yeast two-hybrid bait expressed from vector pEG202; also called CD2 cytoplasmic tail; human CD2 cytoplasmic segment amino acids 221-327

Key:
human CD4 = target: T5, human CD4 (human, UniProt P01730 26-458); assay: co-immunoprecipitation from cotransfected COS7 cells, anti-FLAG Western blot
T5 construct: whole, on cells; Control in the COS7 co-immunoprecipitation; tested in cell lysate
Experimental: COS7 cells were transfected with FLAG-CD2BP2 cDNA (lane 1), with FLAG-CD2BP2 and a human CD2 cDNA (lanes 2 and 3), or with FLAG-CD2BP2 and a human CD4 cDNA (lanes 4 and 5), then were lysed and immunoprecipitated with the anti-FLAG mAb M2 (lanes 3 and 5), with anti-CD2 mAb (anti-T11₁)(lanes 1 and 2), or with anti-CD4 mAb (19Thy5D7) (lane 4). Subsequently, the amount of FLAG-CD2BP2 in the immunoprecipitates was assayed by anti-FLAG mAb M2 Western blotting.
To determine whether CD2BP2 associates specifically with CD2, COS7 cells were cotransfected with FLAG-CD2BP2 and CD2 cDNA, or, as a control, CD4 cDNA. Subsequently, the CD2 protein was immunoprecipitated with anti-CD2 mAb and association with CD2BP2 examined by Western blotting with anti-FLAG mAb. […] The amount of CD2BP2 associated with CD2, however, is only a fraction of the CD2BP2 protein expressed in the COS7 cells.
As the vectors for transfection, pcDNA1.1 and pcDNA3.1 (Invitrogen) were used with COS7 and with Jurkat cells, respectively. For expression of CD2 and CD4 in COS7 cells, a pCDM8 plasmid containing each was used (Sakiharna et al, Proc. Natl. Acad. Sci. USA 92:6444-6448 (1995); Li et al., J. Mol. Biol. 263:209-226 (1996)). […]

[1] = target: B1; assay: yeast two-hybrid
Description: (§1) The yeast hybrid system interaction trap was used as described (Finley and Brent, Interaction Trap Cloning with Yeast (Oxford Univ. Press), NY (1995)). In brief, as bait, a human CD2 cDNA encoding the cytoplasmic segment amino acids 221-327 was transferred into the pEG202 vector. cDNAs from an activated human T cell cDNA library, CD2 binding protein 2 (CD2BP2), or mutant cDNA variants of CD2BP2 were introduced into the pJG4-5 vector between EcoRI and Xho1 restriction sites. Mutations were created by a previously described method (Higuchi et al., Nucleic Acids Res. 16:7351-7367 (1988)), and were confirmed by DNA sequencing. Both of the yeast shuttle vectors were introduced into the yeast strain EGY48, were plated onto selection plates containing glucose, and were incubated at 30° C. After 48 hours greater than 100 colonies were mixed, were transferred onto a plate containing galactose/raffinose and 5-bromo-4-chloro-3-indolyl-D-galactoside, and were incubated for 48 hours at 30° C. followed by 5 days at 8° C. The strength of the interaction was scored based on the time point when the blue color appeared in comparison with a negative control: ++++, <6 hours; +++, 12 hours: ++, <24 hours; +, <48 hours; ±, <72 hours; and −, >72 hours. CD2 mutations were generated and analyzed in a similar manner.

[2] = target: T1, CD2 binding protein 2 (CD2BP2); assay: yeast two-hybrid
Description: as §1

CD2BP2129-287 = target: T2, CD2BP2129-287; assay: yeast two-hybrid
Description: as §1

CD2BP2129-254 = target: T3, CD2BP2129-254; assay: yeast two-hybrid
Description: as §1

[3] = target: T4, CD2BP2225-341 (yeast two-hybrid clone); assay: yeast two-hybrid
Description: as §1

binding result [1] | Binder | further results
 | FLAG-CD2BP2 (other, Expressed in COS7 (pcDNA1.1) and Jurkat J77 (pcDNA3.1) cells and tested from cell lysates; also called full length FLAG-CD2BP2 construct) DYKDDDDKMPKRKVTFQGVGDEEDEDEIIVPKKKLVDPVAGSGGPGSRFKGKHSLDSDEEEDDDDGGSSKYDILASEDVEGQEAATLPSEGGGRITPFNLQEEMEEGHFDADGNYFLNRDAQIRDSWLDNIDWVKIRERPPGQRQASDSEEEDSLGQTSMSAQALLEGLLELLLPRETVAGALRRLGARGGGKGRKGPGQPSSPQRLDRLSGLADQMVARGNLGVYQETRERLAMRLKGLGCQTLGPHNPTPPPSLDMFAEELAEEELETPTPTQRGEAESRGDGLVDVMWEYKWENTGDAELYGPFTSAQMQTWVSEGYFPDGVYCRKLDPPGGQFYNSKRIDFDLYT | binding result (human CD4): no binding
no binding | CD2BP2256-332 (other, Yeast two-hybrid prey; vector fusion part not described; also called nine-residue truncation) AEEELETPTPTQRGEAESRGDGLVDVMWEYKWENTGDAELYGPFTSAQMQTWVSEGYFPDGVYCRKLDPPGGQFYNS | 
 | CD2221-271 (receptor, human, UniProt P06729 245-295, looked up, range 221-271; CD2 cytoplasmic tail truncation mutant for yeast two-hybrid analysis; vector fusion part not described) NDEELETRAHRVATEERGRKPHQIPASTPQNPATSQHPPPPPGHRSQAPSH | binding result [2]: no binding
binds | CD2BP2256-341 (yeast two-hybrid clone) (other, Yeast two-hybrid prey in pJG4-5; vector fusion part not described; also called shortest functional clone) AEEELETPTPTQRGEAESRGDGLVDVMWEYKWENTGDAELYGPFTSAQMQTWVSEGYFPDGVYCRKLDPPGGQFYNSKRIDFDLYT | 
no binding | CD2BP2 W307A (other, Yeast two-hybrid prey) AEEELETPTPTQRGEAESRGDGLVDVMWEYKWENTGDAELYGPFTSAQMQTAVSEGYFPDGVYCRKLDPPGGQFYNSKRIDFDLYT | 
no binding | CD2BP2 F313A (other, Yeast two-hybrid prey) AEEELETPTPTQRGEAESRGDGLVDVMWEYKWENTGDAELYGPFTSAQMQTWVSEGYAPDGVYCRKLDPPGGQFYNSKRIDFDLYT | 
no binding | CD2BP2 G311A (other, Yeast two-hybrid prey) AEEELETPTPTQRGEAESRGDGLVDVMWEYKWENTGDAELYGPFTSAQMQTWVSEAYFPDGVYCRKLDPPGGQFYNSKRIDFDLYT | 
no binding | CD2BP2 Y312A (other, Yeast two-hybrid prey) AEEELETPTPTQRGEAESRGDGLVDVMWEYKWENTGDAELYGPFTSAQMQTWVSEGAFPDGVYCRKLDPPGGQFYNSKRIDFDLYT | 
no binding | CD2BP2256-341Δ297-313 (other, Yeast two-hybrid prey; vector fusion part not described; also called deletion clone lacking those 17 residues) AEEELETPTPTQRGEAESRGDGLVDVMWEYKWENTGDAELYPDGVYCRKLDPPGGQFYNSKRIDFDLYT | 
 | B1 | binding result (CD2BP2129-287): no binding; binding result (CD2BP2129-254): no binding; binding result [3]: binds
